For assay [1], the target named is SARS-COV-2 RBD-MMH (SARS-CoV-2). Kind of assay: SPR 37C, run with dissociation at pH 5.0.
The target is the same in assay [2]. Kind of assay: SPR 37C.
Assay [3] has the same target. Kind of assay: SPR 37C, run with dissociation at pH 7.4.

The term koff denotes the first-order rate constant of dissociation. Low readings indicate slow dissociation, high ones fast dissociation. Usually t½ stands for the time needed for the level to fall by half in the phase considered. A lower t½ goes with rapid decline.

B1: mAb15164 (antibody, V domains shown)
VH: EVQLVESGGGLVQPGGSLRLSCAASGFAVSSNYMTWVRQAPGKGLEWVATIYSGDSTYYADSVKGRFTISRHNSKNTLSLQMNSLRADDTAIYYCARLSGVLSGTYNGAFDIWGQGTMVTVSS
VL: QSALTQPASVSGSPGQSITISCTGTSSDFGNYNIVSWYQQHPGQAPKVMIYEGNKRPSGVSNRFSGSKSGHTASLTISGLQAEDEADYYCSSYAGSSTWVFGGGTKLTVLG
B1: in the assay with SARS-COV-2 RBD-MMH [1], the “RBD.mmh Bound at pH 7.4 (RU)” value was 159 RU, the koff was found to be 0.002 s⁻¹ and the t½ was 5.8 min. In addition, the “t½ Ratio of pH 7.4 to pH 5.0” value with SARS-COV-2 RBD-MMH [2] was 0.9. Besides, in the assay with SARS-COV-2 RBD-MMH [3], the “RBD.mmh Bound at pH 7.4 (RU)” value was 145 RU and the dissociation rate constant (koff) is 0.00226 s⁻¹.

B2: mAb15166 (antibody, V domains shown)
VH: EVQLVESGGGLVQPGGSLRLSCAASGFTVTSNYMSWVRQAPGKGLEWVSAIYSGESTYYADSVKGRFTISRDSSKNTLYLQMNSLRVEDTAVYYCASIHDYSNYVGGFDPWGQGTLVTVSS
VL: QSALTQPASVSGSPGQSITISCTGPSSDFGSYNLVSWYQQHPGKAPKLMIYEGTKRPSGVSNRFSGSKSGNTASLTISGLQAEDEADYYCSSYAGSSTWVFGGGTKLTVLG
On to B2, for which, in the assay with SARS-COV-2 RBD-MMH [1], the “RBD.mmh Bound at pH 7.4 (RU)” value stood at 60 RU, the off-rate (koff) was 0.035 s⁻¹ and the t½ came to 0.3 min. Besides, in the assay with SARS-COV-2 RBD-MMH [2], the “t½ Ratio of pH 7.4 to pH 5.0” value was determined as 1.2. Further, in the assay with SARS-COV-2 RBD-MMH [3], the “RBD.mmh Bound at pH 7.4 (RU)” value was 65.2 RU and the koff is 0.03 s⁻¹.

B3: mAb15165 (antibody, V domains shown)
VH: EVQLVESGGGLVQPGGSLRLSCAASGFTVSSNYMSWVRQAPGKGLEWVSAIYSGDSTYYADSVKGRFTISKDNSKNTLYLQMNSLRGEDTAVYYCARLGGALQAYDGAFDYWGQGTLATVSS
VL: QSALTQPASVSGSPGQSITISCTGTSSDFGSYNLVSWYQQHPGKAPKLMIYEGNKRPSGVSIRFSGSKSGNTASLTISGLQAEDEADYYCSSYAGSSTWVFGGGTKLTVLG
With B3, in the assay with SARS-COV-2 RBD-MMH [1], the “RBD.mmh Bound at pH 7.4 (RU)” value was 127 RU, the off-rate constant (koff) was 0.000973 s⁻¹ and the t½ was determined as 11.9 min. Moreover, in the assay with SARS-COV-2 RBD-MMH [2], the “t½ Ratio of pH 7.4 to pH 5.0” value was determined as 0.6. Besides, in the assay with SARS-COV-2 RBD-MMH [3], the “RBD.mmh Bound at pH 7.4 (RU)” value was 110 RU and the koff came to 0.00164 s⁻¹.

B4: mAb15163 (antibody, V domains shown)
VH: EVQLVETGGGLIQPGESLRLSCAASGFIVSTNYMNWVRQAPGKGLEWVSVIYRGGSTYYADSVKGRFTISRDNSKNTLFLQMNSLRAEDTAVYYCARGHEDFDYDTPASGAFDIWGQGTMVTVSS
VL: QSALTQPPSASGSPGQSVTISCTGTSSDVGGHNYVSWYQQHPGKAPKVMIYEVSKRPSGVPDRFSGSKSGNTASLTVSGLQAEDEADYYCSSYAGSNKFVFGTGTKVTVLG
B4: in the assay with SARS-COV-2 RBD-MMH [1], the “RBD.mmh Bound at pH 7.4 (RU)” value was determined as 83.2 RU, the koff was determined as 0.00377 s⁻¹ and the t½ stood at 3.1 min. Moreover, the “t½ Ratio of pH 7.4 to pH 5.0” value in the assay with SARS-COV-2 RBD-MMH [2] came to 7.6. Moreover, in the assay with SARS-COV-2 RBD-MMH [3], the “RBD.mmh Bound at pH 7.4 (RU)” value amounted to 81.9 RU and the koff worked out at 0.000494 s⁻¹.

B5: mAb15162 (antibody, V domains shown)
VH: EVQLVETGGGLIQPGGSLRLSCAASEFIVSRNYMSWVRQAPGKGLEWVSLIYSGGSTYYADSVKGRFTISRDNSKNILYLQMNSLRAEDTAVYYCARDRGGISDYWGQGTLVTVSS
VL: DIQMTQSPSSLSASVGDRVTITCQASQDINKYLNWFQQKPGKAPKLLIYDASNLETGVPSRFSGSGSGTDFTFTISSLQPEDIATYYCQQYDNLPRTFGQGTKLEIKR
Consider B5, for which, in the assay with SARS-COV-2 RBD-MMH [1], the “RBD.mmh Bound at pH 7.4 (RU)” value was found to be 131 RU, the off-rate constant (koff) was 0.0054 s⁻¹ and the t½ turned out to be 2.1 min. Also, the “t½ Ratio of pH 7.4 to pH 5.0” value in the assay with SARS-COV-2 RBD-MMH [2] was found to be 1.8. Moreover, in the assay with SARS-COV-2 RBD-MMH [3], the “RBD.mmh Bound at pH 7.4 (RU)” value was 116 RU and the koff worked out at 0.003 s⁻¹.

The values are drawn from patent publication US20260069689A1 (Regeneron, published 2026).
